Measurements reported in PMC10952593, “Synthetic cannabinoid receptor agonists are monoamine oxidase‐A selective inhibitors” (The Febs Journal, 2023).

Substrate: NCc1ccccc1
Experiment: purified protein
Type: biochemical, Homo sapiens
Conditions: 30 μM MAO-B [sic], 50 mM HEPES pH 7.5, 0.5% Triton X-100, 25 °C

B1: MAO-B (Homo sapiens) (protein)
chain: SNKCDVVVVGGGISGMAAAKLLHDSGLNVVVLEARDRVGGRTYTLRNQKVKYVDLGGSYVGPTQNRILRLAKELGLETYKVNEVERLIHHVKGKSYPFRGPFPPVWNPITYLDHNNFWRTMDDMGREIPSDAPWKAPLAEEWDNMTMKELLDKLCWTESAKQLATLFVNLCVTAETHEVSALWFLWYVKQCGGTTRIISTTNGGQERKFVGGSGQVSERIMDLLGDRVKLERPVIYIDQTRENVLVETLNHEMYEAKYVISAIPPTLGMKIHFNPPLPMMRNQMITRVPLGSVIKCIVYYKEPFWRKKDYCGTMIIDGEEAPVAYTLDDTKPEGNYAAIMGFILAHKARKLARLTKEERLKKLCELYAKVLGSLEALEPVHYEEKNWCEEQYSGGCYTTYFPPGILTQYGRVLRQPVDRIYFAGTETATHWSGYMEGAVEAGERAAREILHAMGKIPEDEIWQSEPESVDVPAQPITTTFLERHLPSVPGLLRLIGLTTIFSATALGFLAHKRGLLVRV
notes: FAD enzyme; PDB 2V5Z was only the docking model
**Q.** Which Km does the source give for B1 here?
**A.** 140 ± 30 µM
